Paper PMC11190991, “Encapsulation of Transketolase into In Vitro-Assembled Protein Nanocompartments Improves Thermal Stability” (ACS Applied Bio Materials, 2024)
Values belong to the molecule of their own block, whether it stands above or below them.

Key:
[1] = molecular target: E. coli transketolase with C-terminal T. maritima cargo loading peptide (E. coli | T. maritima)
[2] = molecular target: Thermotoga maritima encapsulin (T = 1 capsid shell) (Thermotoga maritima) (UniProt Q9WZP2); assay: SEC; in vitro loading during reassembly (10 μM encapsulin monomer, cargo at stated molar ratio), SEC on Superose 6 to remove non-encapsulated cargo, co-eluted cargo seen by SDS-PAGE and quantified by densitometry against standard curves
[3] = molecular target: Myxococcus xanthus encapsulin (T = 1 and T = 3 capsid shells) (Myxococcus xanthus) (UniProt Q1D6H4); assay: co-purification after co-expression + SDS-PAGE densitometry; in vivo loading: sfGFP-CLP co-expressed with Strep-tagged encapsulin in E. coli, capsids purified (SEC purified samples), cargo quantified by SDS-PAGE densitometry; single experiment
[4] = molecular target: Myxococcus xanthus encapsulin (T = 1 and T = 3 capsid shells) (Myxococcus xanthus) (UniProt Q1D6H4); assay: SEC; in vitro loading during reassembly (10 μM encapsulin monomer, cargo at stated molar ratio), SEC on Superose 6 to remove non-encapsulated cargo, co-eluted cargo seen by SDS-PAGE and quantified by densitometry against standard curves
[5] = molecular target: Thermotoga maritima encapsulin (T = 1 capsid shell) (Thermotoga maritima) (UniProt Q9WZP2); assay: co-purification after co-expression + SDS-PAGE densitometry; in vivo loading: sfGFP-CLP co-expressed with Strep-tagged encapsulin in E. coli, capsids purified (SEC purified samples), cargo quantified by SDS-PAGE densitometry; single experiment
Q9WZP2 = assay: SEC; Superose 6 10/300 GL, 20 mM Tris-Cl, 50 mM NaCl, pH 7.5; A280 peak area of higher-order structures after reassembly against before disassembly; Tm_encap from 0.15 M NaOH, Mx_encap from 8 M urea
[6] = molecular target: the molecule itself; assay: native gel or EMSA; BN-PAGE of samples disassembled in denaturant: 6 M GuHCl, 8 M urea (20 mM Tris-Cl pH 7.5), 0.15 M HCl pH 1.0 or 0.15 M NaOH pH 13.0

end-point transketolase activity (erythrulose from HPA and GA) of TK-TmCLP encapsulated in Tm encap, against free TK (100%) [1]: 50 % drop
stoichiometry N (dimers per capsid) [2]: 2.6
Molecule: E. coli transketolase with C-terminal T. maritima cargo loading peptide (enzyme)

stoichiometry N (copies per capsid) [3]: 31
stoichiometry N (copies per capsid) [4]: 20
Molecule: superfolder GFP with C-terminal M. xanthus cargo loading peptide

stoichiometry N (molecules per capsid) [5]: 2.94
stoichiometry N (copies per capsid) [2]: 15
Molecule: superfolder GFP with C-terminal T. maritima cargo loading peptide

B1: Thermotoga maritima encapsulin (T = 1 capsid shell) (natural protein, UniProt Q9WZP2 1-265, looked up)
chain: MEFLKRSFAPLTEKQWQEIDNRAREIFKTQLYGRKFVDVEGPYGWEYAAHPLGEVEVLSDENEVVKWGLRKSLPLIELRATFTLDLWELDNLERGKPNVDLSSLEETVRKVAEFEDEVIFRGCEKSGVKGLLSFEERKIECGSTPKDLLEAIVRALSIFSKDGIEGPYTLVINTDRWINFLKEEAGHYPLEKRVEECLRGGKIITTPRIEDALVVSERGGDFKLILGQDLSIGYEDREKDAVRLFITETFTFQVVNPEALILLKF
notes: T = 1 capsid, 1.97 MDa; also called T. maritima encapsulin; source: E. coli BL21 Star (DE3), purified (Strep-TactinXT); disassembled and reassembled in vitro; also co-expressed with sfGFP-TmCLP for in vivo loading; not shown: Strep-Tag II (after a GSG linker), C-terminal, kept; copies: 60
recovery of higher-order structures after reassembly (SEC peak area, 8-14 mL) (Q9WZP2): we determined the recovery to be 82%
stoichiometry N [6]: 2
